Data set [1] deals with T1, Hom3 (aspartate kinase, AK) (Saccharomyces cerevisiae, UniProt P10869).
T1 sequence (P10869 1-527): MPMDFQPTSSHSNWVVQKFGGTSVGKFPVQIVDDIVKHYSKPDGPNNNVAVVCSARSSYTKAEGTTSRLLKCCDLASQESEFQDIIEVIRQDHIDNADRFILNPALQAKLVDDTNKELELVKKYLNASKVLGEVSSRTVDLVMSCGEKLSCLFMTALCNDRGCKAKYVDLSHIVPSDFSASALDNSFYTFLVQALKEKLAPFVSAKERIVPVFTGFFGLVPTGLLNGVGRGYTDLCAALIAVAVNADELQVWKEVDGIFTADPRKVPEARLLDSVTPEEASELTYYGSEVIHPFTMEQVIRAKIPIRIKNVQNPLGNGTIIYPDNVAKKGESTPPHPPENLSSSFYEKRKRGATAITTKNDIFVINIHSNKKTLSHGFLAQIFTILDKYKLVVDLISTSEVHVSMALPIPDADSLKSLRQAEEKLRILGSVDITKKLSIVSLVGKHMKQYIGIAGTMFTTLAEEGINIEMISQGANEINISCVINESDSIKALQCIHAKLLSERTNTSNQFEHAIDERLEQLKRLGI
Description: PK/LDH-coupled AK assay at […] Asp and […] ATP; BN-PAGE shift from ~[…] to ~[…] kDa with […] Thr. Format: biochemical.

Substrate in data set [2]: Nc1ncnc2c1ncn2[C@@H]1O[C@H](COP(=O)(O)OP(=O)(O)OP(=O)(O)O)[C@@H](O)[C@H]1O
Description: steady-state kinetics (Km), PK/LDH-coupled assay. Format: biochemical, Saccharomyces cerevisiae. The conditions noted are these: Mg2+ ([…] MgSO4 in assay).

Substrate in data set [3]: N[C@@H](CC(=O)O)C(=O)O
Description: steady-state kinetics (Km), PK/LDH-coupled assay. Format: biochemical, Saccharomyces cerevisiae. The conditions noted are these: Mg2+ ([…] MgSO4 in assay).

The term IC50 denotes the concentration that gives 50% inhibition. In the case of `C[C@@H](O)[C@H](N)C(=O)O` [threonine], the IC50 in data set [1] came to 5.4 ± 0.12 mM.

B1: Hom3 (aspartate kinase, AK) (Saccharomyces cerevisiae S288C) (protein)
chain: MPMDFQPTSSHSNWVVQKFGGTSVGKFPVQIVDDIVKHYSKPDGPNNNVAVVCSARSSYTKAEGTTSRLLKCCDLASQESEFQDIIEVIRQDHIDNADRFILNPALQAKLVDDTNKELELVKKYLNASKVLGEVSSRTVDLVMSCGEKLSCLFMTALCNDRGCKAKYVDLSHIVPSDFSASALDNSFYTFLVQALKEKLAPFVSAKERIVPVFTGFFGLVPTGLLNGVGRGYTDLCAALIAVAVNADELQVWKEVDGIFTADPRKVPEARLLDSVTPEEASELTYYGSEVIHPFTMEQVIRAKIPIRIKNVQNPLGNGTIIYPDNVAKKGESTPPHPPENLSSSFYEKRKRGATAITTKNDIFVINIHSNKKTLSHGFLAQIFTILDKYKLVVDLISTSEVHVSMALPIPDADSLKSLRQAEEKLRILGSVDITKKLSIVSLVGKHMKQYIGIAGTMFTTLAEEGINIEMISQGANEINISCVINESDSIKALQCIHAKLLSERTNTSNQFEHAIDERLEQLKRLGI
One may read the Km as the substrate concentration at which the rate is half of its maximum. A word on the kcat: it is the number of substrate molecules converted per active site and unit of time at saturation. As a reminder, the kcat/Km is the turnover number divided by the Michaelis constant. B1: in data set [2], the Km turned out to be 0.83 ± 0.044 mM, the kcat amounted to 54 ± 0.78 s⁻¹ and the kcat/Km was 65000 M⁻¹ s⁻¹. In data set [3], the Michaelis-Menten constant (Km) was 3.8 ± 0.36 mM, the kcat is 55 ± 1.5 s⁻¹ and the kcat/Km turned out to be 15000 M⁻¹ s⁻¹.

B2: Hom3 (aspartate kinase, AK) (Saccharomyces cerevisiae S288C; A462T) (protein)
chain: MPMDFQPTSSHSNWVVQKFGGTSVGKFPVQIVDDIVKHYSKPDGPNNNVAVVCSARSSYTKAEGTTSRLLKCCDLASQESEFQDIIEVIRQDHIDNADRFILNPALQAKLVDDTNKELELVKKYLNASKVLGEVSSRTVDLVMSCGEKLSCLFMTALCNDRGCKAKYVDLSHIVPSDFSASALDNSFYTFLVQALKEKLAPFVSAKERIVPVFTGFFGLVPTGLLNGVGRGYTDLCAALIAVAVNADELQVWKEVDGIFTADPRKVPEARLLDSVTPEEASELTYYGSEVIHPFTMEQVIRAKIPIRIKNVQNPLGNGTIIYPDNVAKKGESTPPHPPENLSSSFYEKRKRGATAITTKNDIFVINIHSNKKTLSHGFLAQIFTILDKYKLVVDLISTSEVHVSMALPIPDADSLKSLRQAEEKLRILGSVDITKKLSIVSLVGKHMKQYIGIAGTMFTTLTEEGINIEMISQGANEINISCVINESDSIKALQCIHAKLLSERTNTSNQFEHAIDERLEQLKRLGI
Take B2: in data set [2], the Km is recorded as 1.0 ± 0.071 mM, the kcat stood at 53 ± 1.1 s⁻¹ and the kcat/Km amounted to 51000 M⁻¹ s⁻¹. Further, in data set [3], the Km is recorded as 4.4 ± 0.37 mM, the kcat was 55 ± 1.4 s⁻¹ and the kcat/Km stood at 13000 M⁻¹ s⁻¹.

Source of the values: paper PMC11022571, “Functional analysis of feedback inhibition-insensitive aspartate kinase identified in a threonine-accumulating mutant of Saccharomyces cerevisiae” (Applied and Environmental Microbiology, 2024).
